Values of other authors, collected in PMC8625919.
pKd: −log10 of the molar value. Where “and” joins values, the source holds several entries; their conditions need not be identical. Identical values can stand only once.

Experiments:
[1] = target: Neuropilin-1 (Homo sapiens) (UniProt O14786); test: ELISA type assay with AP-VEGF164
[2] = target: VEGFR-2D2-3 D2-3 (Homo sapiens) (UniProt P35968); test: ITC
[3] = target: VEGFR-2D2-3 D2-3 (Homo sapiens) (UniProt P35968); test: SPR
VEGFR-2 (Homo sapiens) = VEGFR-2 (Homo sapiens) (UniProt P35968)
[4] = target: VEGFR-1D1-3 D1-3 (Homo sapiens) (UniProt P17948); test: ITC
[5] = target: VEGFR-1D1-7 D1-7 (Homo sapiens) (UniProt P17948); test: ITC
[6] = target: VEGFR-3D1-5 D1-5 (Homo sapiens) (UniProt P35916); test: ITC
[7] = target: VEGFR-3D1-3 D1-3 (Homo sapiens) (UniProt P35916); test: ITC
[8] = target: VEGFR-3D1-2 D1-2 (Homo sapiens) (UniProt P35916); test: ITC
[9] = target: VEGFR-3 D1-2 (Homo sapiens) (UniProt P35916)
[10] = target: VEGFR-3 D1-5 (Homo sapiens) (UniProt P35916)
[11] = target: VEGFR-3 D1-3 (Homo sapiens) (UniProt P35916)

UniProt O14786, sequence (O14786 22-923): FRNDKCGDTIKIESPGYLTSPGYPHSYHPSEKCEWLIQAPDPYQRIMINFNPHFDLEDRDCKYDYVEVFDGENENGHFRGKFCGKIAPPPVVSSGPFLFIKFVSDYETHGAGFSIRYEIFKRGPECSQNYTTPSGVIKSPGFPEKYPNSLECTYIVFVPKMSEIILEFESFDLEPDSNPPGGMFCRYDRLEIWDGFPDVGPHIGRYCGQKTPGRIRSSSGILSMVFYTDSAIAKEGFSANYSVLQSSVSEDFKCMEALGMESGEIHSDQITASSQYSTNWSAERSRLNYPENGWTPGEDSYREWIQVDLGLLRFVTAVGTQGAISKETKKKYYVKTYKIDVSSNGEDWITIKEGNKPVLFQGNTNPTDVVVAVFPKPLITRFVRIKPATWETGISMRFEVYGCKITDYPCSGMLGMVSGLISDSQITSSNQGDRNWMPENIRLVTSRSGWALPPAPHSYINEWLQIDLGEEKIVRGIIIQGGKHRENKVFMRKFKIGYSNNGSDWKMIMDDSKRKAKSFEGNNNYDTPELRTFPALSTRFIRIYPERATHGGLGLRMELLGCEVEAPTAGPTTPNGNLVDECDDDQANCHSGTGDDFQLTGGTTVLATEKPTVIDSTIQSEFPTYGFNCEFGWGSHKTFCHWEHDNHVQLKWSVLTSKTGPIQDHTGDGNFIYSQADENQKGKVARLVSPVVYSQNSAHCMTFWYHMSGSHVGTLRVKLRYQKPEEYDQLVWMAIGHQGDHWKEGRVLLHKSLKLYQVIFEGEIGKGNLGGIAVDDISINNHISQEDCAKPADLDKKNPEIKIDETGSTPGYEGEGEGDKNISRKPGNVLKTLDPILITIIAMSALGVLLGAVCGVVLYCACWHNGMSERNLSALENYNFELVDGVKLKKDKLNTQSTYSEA

Substance: VEGF164 (from UniProt Q00731)
- pKd [1]: 8.52

Substance: VEGF165 (from UniProt P15692)
- pKd [2]: 6.77 and 7.74
- pKd [3]: 7.44

Substance: VEGF-A (from UniProt P15692)
- pKd (VEGFR-2 (Homo sapiens)): 9.95
- pKd [4]: 7.33
- pKd [5]: 8.77

Substance: VEGF-C (from UniProt P49767)
- pKd [2]: 7.80
- pKd [6]: 8.43
- pKd [7]: 6.85
- pKd [8]: 6.60
- pKd [9]: 6.60
- pKd [3]: 7.74
- pKd [10]: 8.43
- pKd [11]: 6.85
